From publication PMC10786891, “Massively parallel profiling of RNA-targeting CRISPR-Cas13d”
Numbering of substitutions follows the chain as printed. Names and notes keep the numbering of the source.

T1: EsCas13d, nuclease-dead (Eubacterium siraeum, UniProt B0MS50, R295A;H300A;R849A;H854A)
T1 sequence: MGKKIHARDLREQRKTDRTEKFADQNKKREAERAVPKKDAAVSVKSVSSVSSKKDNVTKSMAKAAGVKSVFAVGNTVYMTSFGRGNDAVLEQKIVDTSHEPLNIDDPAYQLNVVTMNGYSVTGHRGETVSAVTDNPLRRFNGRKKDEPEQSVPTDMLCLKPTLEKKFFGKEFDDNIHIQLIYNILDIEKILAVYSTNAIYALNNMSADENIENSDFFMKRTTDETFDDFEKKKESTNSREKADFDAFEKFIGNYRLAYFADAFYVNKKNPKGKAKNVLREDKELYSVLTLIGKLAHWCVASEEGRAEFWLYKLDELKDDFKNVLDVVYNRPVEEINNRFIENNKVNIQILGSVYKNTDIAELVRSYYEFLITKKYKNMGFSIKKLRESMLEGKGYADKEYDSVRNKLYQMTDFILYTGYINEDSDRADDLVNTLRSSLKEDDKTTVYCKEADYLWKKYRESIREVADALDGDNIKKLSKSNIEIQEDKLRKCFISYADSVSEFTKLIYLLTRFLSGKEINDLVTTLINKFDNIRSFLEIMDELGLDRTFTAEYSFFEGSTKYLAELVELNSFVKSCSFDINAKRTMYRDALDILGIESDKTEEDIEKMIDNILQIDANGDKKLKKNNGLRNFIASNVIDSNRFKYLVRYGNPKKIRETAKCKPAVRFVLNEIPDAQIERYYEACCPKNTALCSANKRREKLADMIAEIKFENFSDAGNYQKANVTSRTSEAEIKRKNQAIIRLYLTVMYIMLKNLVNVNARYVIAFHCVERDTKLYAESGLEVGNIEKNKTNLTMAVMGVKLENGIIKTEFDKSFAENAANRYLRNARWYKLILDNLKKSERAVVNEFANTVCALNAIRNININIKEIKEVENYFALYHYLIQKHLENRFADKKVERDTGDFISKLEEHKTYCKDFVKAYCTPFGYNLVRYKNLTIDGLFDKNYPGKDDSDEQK

B1: target 2 MT 5'PFS GAG 3'PFS UAG (mixed)
RNA 1: CACCCGUGCAAAAUUGCAGGGGUCUAAAACCUUCUCCAAAUUGUUUCAUCCU
RNA 2: GGGAAUGGAUCCACAUCUACGAAUUCGAGAGGAUGAAACAAUUUGGAGAAGUAGAGAUCGGAAGAGCACACGU
B2: target 2 MT 5'PFS GCG 3'PFS CAA (mixed)
RNA 1: B1 RNA 1
RNA 2: B1 RNA 2 with A28C, U52C, G54A
B3: target 2 MT 5'PFS GCG 3'PFS CAG (mixed)
RNA 1: B1 RNA 1
RNA 2: B1 RNA 2 with A28C, U52C
B4: target 2 MT 5'PFS GAG 3'PFS UAC (mixed)
RNA 1: B1 RNA 1
RNA 2: B1 RNA 2 with G54C
B5: target 2 MT 5'PFS GAG 3'PFS UAA (mixed)
RNA 1: B1 RNA 1
RNA 2: B1 RNA 2 with G54A
B6: target 2 MT 5'PFS GCU 3'PFS AUG (mixed)
RNA 1: B1 RNA 1
RNA 2: B1 RNA 2 with A28C, G29U, U52A, A53U
B7: target 2 MT 5'PFS GCU 3'PFS AUC (mixed)
RNA 1: B1 RNA 1
RNA 2: B1 RNA 2 with A28C, G29U, U52A, A53U, G54C
B8: target 2 MT 5'PFS GCU 3'PFS AUA (mixed)
RNA 1: B1 RNA 1
RNA 2: B1 RNA 2 with A28C, G29U, U52A, A53U, G54A
B9: target 2 MT 5'PFS GAG 3'PFS UUG (mixed)
RNA 1: B1 RNA 1
RNA 2: B1 RNA 2 with A53U
B10: target 2 MT 5'PFS GCU 3'PFS AUU (mixed)
RNA 1: B1 RNA 1
RNA 2: B1 RNA 2 with A28C, G29U, U52A, A53U, G54U
B11: target 1 C2A,C4G (mixed)
RNA 1: CACCCGUGCAAAAAUGCAGGGGUCUAAAACUGAGCGGAUAACCUCUCUAUGG
RNA 2: GGGAAUGGAUCCACAUCUACGAAUUCGUACCAUAGAGAGGUUAUCCGGUAACCGAGAUCGGAAGAGCACACGU
B12: target 2 MT 5'PFS GAG 3'PFS UUA (mixed)
RNA 1: B1 RNA 1
RNA 2: B1 RNA 2 with A53U, G54A
B13: target 2 MT 5'PFS AGC 3'PFS UAC (mixed)
RNA 1: B1 RNA 1
RNA 2: B1 RNA 2 with G27A, A28G, G29C, G54C
B14: target 2 MT 5'PFS AGC 3'PFS UAA (mixed)
RNA 1: B1 RNA 1
RNA 2: B1 RNA 2 with G27A, A28G, G29C, G54A
B15: target 2 MT 5'PFS CUC 3'PFS UAU (mixed)
RNA 1: B1 RNA 1
RNA 2: B1 RNA 2 with G27C, A28U, G29C, G54U
B16: target 2 MT 5'PFS CGG 3'PFS UAU (mixed)
RNA 1: B1 RNA 1
RNA 2: B1 RNA 2 with G27C, A28G, G54U
B17: target 2 MT 5'PFS GGG 3'PFS AAU (mixed)
RNA 1: B1 RNA 1
RNA 2: B1 RNA 2 with A28G, U52A, G54U
B18: target 2 MT 5'PFS CUC 3'PFS UAC (mixed)
RNA 1: B1 RNA 1
RNA 2: B1 RNA 2 with G27C, A28U, G29C, G54C
B19: target 2 MT 5'PFS CUC 3'PFS UAA (mixed)
RNA 1: B1 RNA 1
RNA 2: B1 RNA 2 with G27C, A28U, G29C, G54A
B20: target 2 MT 5'PFS CUC 3'PFS UAG (mixed)
RNA 1: B1 RNA 1
RNA 2: B1 RNA 2 with G27C, A28U, G29C
B21: target 2 MT 5'PFS AGC 3'PFS UAU (mixed)
RNA 1: B1 RNA 1
RNA 2: B1 RNA 2 with G27A, A28G, G29C, G54U
B22: target 1 insG 3' of 4,insU 3' of 1 (mixed)
RNA 1: B11 RNA 1
RNA 2: GGGAAUGGAUCCACAUCUACGAAUUCGUACCAUAGAGAGGUUAUCCGCGUCAUCCGAGAUCGGAAGAGCACACGU
B23: target 2 MT 5'PFS GGG 3'PFS AAA (mixed)
RNA 1: B1 RNA 1
RNA 2: B1 RNA 2 with A28G, U52A, G54A
B24: target 2 MT 5'PFS GGG 3'PFS AAC (mixed)
RNA 1: B1 RNA 1
RNA 2: B1 RNA 2 with A28G, U52A, G54C
B25: target 2 MT 5'PFS CGG 3'PFS UAA (mixed)
RNA 1: B1 RNA 1
RNA 2: B1 RNA 2 with G27C, A28G, G54A
B26: target 2 MT 5'PFS GGG 3'PFS AAG (mixed)
RNA 1: B1 RNA 1
RNA 2: B1 RNA 2 with A28G, U52A
B27: target 2 MT 5'PFS CGG 3'PFS UAC (mixed)
RNA 1: B1 RNA 1
RNA 2: B1 RNA 2 with G27C, A28G, G54C
B28: target 2 MT 5'PFS AGC 3'PFS AGU (mixed)
RNA 1: B1 RNA 1
RNA 2: B1 RNA 2 with G27A, A28G, G29C, U52A, A53G, G54U
B29: target 2 MT 5'PFS GUU 3'PFS AGU (mixed)
RNA 1: B1 RNA 1
RNA 2: B1 RNA 2 with A28U, G29U, U52A, A53G, G54U
B30: target 2 MT 5'PFS UCA 3'PFS UCA (mixed)
RNA 1: B1 RNA 1
RNA 2: B1 RNA 2 with G27U, A28C, G29A, A53C, G54A
B31: target 2 MT 5'PFS AGC 3'PFS AGG (mixed)
RNA 1: B1 RNA 1
RNA 2: B1 RNA 2 with G27A, A28G, G29C, U52A, A53G
B32: target 2 MT 5'PFS AGC 3'PFS AGA (mixed)
RNA 1: B1 RNA 1
RNA 2: B1 RNA 2 with G27A, A28G, G29C, U52A, A53G, G54A
B33: target 1 insC 3' of 18,insA 3' of 10 (mixed)
RNA 1: B11 RNA 1
RNA 2: GGGAAUGGAUCCACAUCUACGAAUUCGUACCAUACGAGAGGUUAAUCCGCUCACCGAGAUCGGAAGAGCACACGU

These binders were tested against T1, EsCas13d, nuclease-dead (assay: crRNA (strand 1, pre-loaded); Mg2+; 40 mM Tris-HCl pH 7.5, 150 mM NaCl, 6 mM MgCl2, 1 mM DTT, 0.1% Tween-20, 0.2 mg/ml BSA; 25 C; 10 min per concentration, then washed). Details: tags: His6-TwinStrep-SUMO cleaved; N-terminal SNAP kept (SNAP-Surface 488); label: 3' end held by stalled T7 RNA polymerase.

**Q.** For B1, which Kd is on record?
**A.** Its Kd is 6.2 ± 0.7 nM.

**Q.** With B2 as the binder, how does the Kd read?
**A.** Its Kd is 9.7 ± 1.9 nM.

**Q.** How did the Kd turn out when B3 was run?
**A.** Its Kd is 9.4 ± 0.9 nM.

**Q.** With B4 as the binder, how does the Kd read?
**A.** The Kd was 10.6 ± 1.7 nM.

**Q.** How did the Kd turn out when B5 was run?
**A.** Its Kd is 5.1 ± 0.7 nM.

**Q.** B6 was tested. Which Kd did it give?
**A.** The Kd was 22 ± 6 nM.

**Q.** How did the Kd turn out when B7 was run?
**A.** The Kd was 14.5 ± 2.8 nM.

**Q.** With B8 as the binder, how does the Kd read?
**A.** The Kd was 8.9 ± 1.1 nM.

**Q.** With B9 as the binder, how does the Kd read?
**A.** Its Kd is 8.5 ± 1 nM.

**Q.** How did the Kd turn out when B10 was run?
**A.** Its Kd is 15 ± 4 nM.

**Q.** B11 was tested. Which Kd did it give?
**A.** Its Kd is 12 ± 0.6 nM.

**Q.** With B12 as the binder, how does the Kd read?
**A.** The Kd was 14.2 ± 2.2 nM.

**Q.** With B13 as the binder, how does the Kd read?
**A.** The Kd was 10.5 ± 2.3 nM.

**Q.** B14 was tested. Which Kd did it give?
**A.** The Kd was 8.7 ± 1.7 nM.

**Q.** How did the Kd turn out when B15 was run?
**A.** The Kd was 1.99 ± 0.13 nM.

**Q.** For B16, which Kd is on record?
**A.** Its Kd is 5 ± 0.8 nM.

**Q.** With B17 as the binder, how does the Kd read?
**A.** Its Kd is 6.2 ± 0.6 nM.

**Q.** For B18, which Kd is on record?
**A.** The Kd was 2.32 ± 0.23 nM.

**Q.** B19 was tested. Which Kd did it give?
**A.** The Kd was 2.05 ± 0.35 nM.

**Q.** How did the Kd turn out when B20 was run?
**A.** Its Kd is 3.4 ± 0.6 nM.

**Q.** Which Kd does the source give for B21 here?
**A.** Its Kd is 8.9 ± 1.3 nM.

**Q.** For B22, which Kd is on record?
**A.** Its Kd is 9.1 ± 0.4 nM.

**Q.** With B23 as the binder, how does the Kd read?
**A.** Its Kd is 6.7 ± 0.9 nM.

**Q.** B24 was tested. Which Kd did it give?
**A.** Its Kd is 8.7 ± 1 nM.

**Q.** B25 was tested. Which Kd did it give?
**A.** The Kd was 4.4 ± 0.7 nM.

**Q.** With B26 as the binder, how does the Kd read?
**A.** The Kd was 8.9 ± 1 nM.

**Q.** B27 was tested. Which Kd did it give?
**A.** The Kd was 5.3 ± 0.6 nM.

**Q.** With B28 as the binder, how does the Kd read?
**A.** Its Kd is 10.2 ± 1.6 nM.

**Q.** Which Kd does the source give for B29 here?
**A.** Its Kd is 9.9 ± 0.8 nM.

**Q.** B30 was tested. Which Kd did it give?
**A.** The Kd was 4.3 ± 0.7 nM.

**Q.** For B31, which Kd is on record?
**A.** Its Kd is 7.1 ± 1 nM.

**Q.** Which Kd does the source give for B32 here?
**A.** The Kd was 7.1 ± 1 nM.

**Q.** For B33, which Kd is on record?
**A.** The Kd was 52 ± 4 nM.
